Each block holds one binder with its values, some of them ahead of it.
Tests used:
[1] = biological target: T1, Abatacept (human IgG1 constant region fused to hCTLA4) (human, UniProt P16410 38-161, biotinylated by amine coupling); assay: phage ELISA
T1 construct: bought drug; also called Abatacept-Biotin; biotin-labeled abatacept
T1 sequence (looked up): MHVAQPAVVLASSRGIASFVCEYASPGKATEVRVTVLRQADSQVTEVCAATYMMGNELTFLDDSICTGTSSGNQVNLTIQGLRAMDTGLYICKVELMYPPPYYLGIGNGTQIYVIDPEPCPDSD

[2] = biological target: T2, mCTLA4-His (mouse CTLA4 extracellular region linked with a His-tag) (mouse, UniProt P09793 36-161); assay: SPR 37C, ATP 10 µM
[3] = biological target: T2, mCTLA4-His (mouse CTLA4 extracellular …); assay: SPR 37C, ATP 100 µM
human CTLA4 [4] = biological target: T3, human CTLA4 (human); assay: SPR Biacore T200, 37C, antibody captured, ATP 1 uM
T3 construct: also called hCTLA4; hCTLA4-His-BAP
T3 sequence (chain, as listed by the source limits assumed): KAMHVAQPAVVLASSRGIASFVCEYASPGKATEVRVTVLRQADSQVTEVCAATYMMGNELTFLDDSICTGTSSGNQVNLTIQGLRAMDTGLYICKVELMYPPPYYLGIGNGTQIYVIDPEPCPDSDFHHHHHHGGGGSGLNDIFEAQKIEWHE

human CTLA4 [5] = biological target: T3, human CTLA4; assay: SPR Biacore T200, 37C, antibody captured, ATP 1 uM; remark: listed apart in the source
[6] = biological target: T4, mouse CTLA4 extracellular region linked with a His-tag (mCTLA4-His) (mouse, UniProt P09793 36-161); assay: SPR Biacore T200, 37C, antibody captured, ATP 1 uM
[7] = biological target: T5, cynomolgus monkey CTLA4 (CyCTLA4-His-BAP) (cynomolgus monkey); assay: SPR Biacore T200, 37C, antibody captured, ATP 1 uM
T5 sequence (chain, as listed by the source limits assumed): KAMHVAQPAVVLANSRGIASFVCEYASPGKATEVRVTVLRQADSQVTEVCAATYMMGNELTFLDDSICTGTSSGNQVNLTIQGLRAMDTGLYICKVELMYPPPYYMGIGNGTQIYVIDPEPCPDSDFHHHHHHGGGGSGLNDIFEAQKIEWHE

human CTLA4 [8] = biological target: T3, human CTLA4; assay: SPR Biacore T200, 37C, antibody captured, ATP 10 uM
human CTLA4 [9] = biological target: T3, human CTLA4; assay: as above; remark: listed apart in the source
human CTLA4 [10] = biological target: T3, human CTLA4; assay: SPR Biacore T200, 37C, antibody captured, ADP 10 uM;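 also: antibodies held on a Protein G CM3 chip, human CTLA4 as analyte in ACES pH 7.4 buffer, rates from a global 1:1 Langmuir fit, Kd from rates or steady state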
human CTLA4 [11] = biological target: T3, human CTLA4; assay: SPR Biacore T200, 37C, antibody captured, AMP 10 uM
human CTLA4 [12] = biological target: T3, human CTLA4; assay: SPR Biacore T200, 37C, antibody captured, ATP 10 uM; remark: listed apart in the source
human CTLA4 [13] = biological target: T3, human CTLA4; assay: as above; remark: listed apart in the source
[14] = biological target: T4, mouse CTLA4 extracellular region linked …; assay: as above
[15] = biological target: T5, cynomolgus monkey CTLA4 …; assay: as above
human CTLA4 [16] = biological target: T3, human CTLA4; assay: SPR Biacore T200, 37C, antibody captured, ATP 100 uM
human CTLA4 [17] = biological target: T3, human CTLA4; assay: as above; remark: listed apart in the source
[18] = biological target: T4, mouse CTLA4 extracellular region linked …; assay: as above
[19] = biological target: T5, cynomolgus monkey CTLA4 …; assay: as above
human CTLA4 [20] = biological target: T3, human CTLA4; assay: SPR Biacore T200, 37C, antibody captured, no ATP, steady state model
human CTLA4 [21] = biological target: T3, human CTLA4; assay: as above; remark: listed apart in the source
[22] = biological target: T6, hCTLA4-His-BAP (human CTLA4 extracellular region with C-terminal His-tag and BAP-tag) (human, biotin on the BAP-tag); assay: SPR 37C, ATP 10 µM
T6 construct: also called hCTLA4-His-Biotin

[23] = biological target: T6, hCTLA4-His-BAP (human CTLA4 …); assay: SPR 37C, ATP 10 µM; remark: listed apart in the source
[24] = biological target: T6, hCTLA4-His-BAP (human CTLA4 …); assay: SPR 37C, ATP 100 µM
[25] = biological target: T6, hCTLA4-His-BAP (human CTLA4 …); assay: SPR 37C, no ATP, steady state model
human CTLA4 [26] = biological target: T3, human CTLA4; assay: SPR Biacore T200, 37C, antibody captured, ATP 10 uM; ATP 10 µM
human CTLA4 [27] = biological target: T3, human CTLA4; assay: SPR Biacore T200, 37C, antibody captured, ATP 100 uM; ATP 100 µM
human CTLA4 [28] = biological target: T3, human CTLA4; assay: SPR Biacore T200, 37C, antibody captured, no ATP; no ATP; binding amount
human CTLA4 [29] = biological target: T3, human CTLA4; assay: SPR Biacore T200, 37C, antibody captured, ATP 1 uM; ATP 1 µM; binding amount
human CTLA4 [30] = biological target: T3, human CTLA4; assay: SPR Biacore T200, 37C, antibody captured, ATP 10 uM; ATP 10 µM; binding amount
human CTLA4 [31] = biological target: T3, human CTLA4; assay: SPR Biacore T200, 37C, antibody captured, ATP 100 uM; ATP 100 µM; binding amount

B2: ABAM003 (antibody, human IgG1, V domains shown)
VH: EVQLVESGGDLVKPGGGLRLSCAASGFTFSGYTMHWVRQAPGKGLEWVSSISSRSRYASYADSVKGRFTISRDNAKNSLYLQMNSLRAEDTAVYYCARFGIKNHLNWVFDYWGQGTLVTVSS
VL: QSALTQPPSASGSPGQTVTISCTGTSSDVGDYNYVSWYQQHPGKAPKLMIYGVSKRPSGVPDRFSGSKSGNTASLTVSGLQAEDEADYFCSTVSTSHSPVFGGGTKLTVL
notes: also called ABADh12-4_014
binding result [1]: binds

B3: hUH02-G1d/hUL01-k0 (antibody, human IgG1, kappa, V domains shown)
VH: QVQLQESGPGLVKPSETLSLTCTVSGYSISSGYGWNWIRQPPGKGLEWIGFIYYEGSTYYNPSIKSRISITRDTSKNQFFLQVNSVTTEDTATYYCARQTGYFDYWGQGTLVTVSS
VL: DIVMTQSPDSLAVSLGERATINCKSSQSLFNSNAKTNYLNWYQQKPGQPPKLLIYYASTRHTGVPDRFSGSGSGTDFTLTISSLQAEDVAVYYCQQWYDYPYTFGAGTKVEIKR
notes: also called anti-mouse CTLA4 antibody
Kd [2]: 110 nM | Kd [3]: 110 nM

B4: 04H1389-G1m/04L1305-k0MT (antibody, human IgG1, kappa)
heavy: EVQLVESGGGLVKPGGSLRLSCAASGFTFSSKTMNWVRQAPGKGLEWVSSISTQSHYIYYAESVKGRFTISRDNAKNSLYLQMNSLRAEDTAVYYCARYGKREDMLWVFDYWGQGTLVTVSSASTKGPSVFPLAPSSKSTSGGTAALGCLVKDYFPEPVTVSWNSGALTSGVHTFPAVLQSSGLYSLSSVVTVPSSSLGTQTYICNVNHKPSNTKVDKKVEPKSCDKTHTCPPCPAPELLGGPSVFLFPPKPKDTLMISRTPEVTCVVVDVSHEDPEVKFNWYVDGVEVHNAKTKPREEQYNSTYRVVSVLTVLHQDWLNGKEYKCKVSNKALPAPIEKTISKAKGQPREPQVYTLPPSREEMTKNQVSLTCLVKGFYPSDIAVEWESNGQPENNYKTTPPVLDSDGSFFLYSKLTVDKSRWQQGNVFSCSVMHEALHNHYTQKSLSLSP
light: DIVMTQSPLSLPVTPGEPASISCDGPSTGVGDYNYVHWYQQKPGQAPRLLIYFTSKKPSGVPDRFSGSGSGTDFTLKISRVEAEDVGVYYCQTYAAPLGPMFGQGTKLEIKRTVAAPSVFIFPPSDEQLKSGTASVVCLLNNFYPREAKVQWKVDNALQSGNSQESVTEQDSKDSTYSLSSTLTLSKADYEKHKVYACEVTHQGLSSPVTKSFNRGEC
Kd (human CTLA4 [4]): 82 nM | Kd (human CTLA4 [5]): 72 nM | Kd [6]: 210 nM | Kd [7]: 140 nM | Kd (human CTLA4 [8]): 19 nM | Kd (human CTLA4 [9]): 15 nM | Kd (human CTLA4 [10]): 25 nM | koff (human CTLA4 [10]): 0.0038 s⁻¹ | kon (human CTLA4 [10]): 160000 M⁻¹ s⁻¹ | Kd (human CTLA4 [11]): 79 nM | koff (human CTLA4 [11]): 0.012 s⁻¹ | kon (human CTLA4 [11]): 150000 M⁻¹ s⁻¹ | Kd (human CTLA4 [12]): 17 nM | koff (human CTLA4 [12]): 0.0019 s⁻¹ | kon (human CTLA4 [12]): 110000 M⁻¹ s⁻¹ | Kd (human CTLA4 [13]): 14 nM | Kd [14]: 32 nM | Kd [15]: 26 nM | Kd (human CTLA4 [16]): 5.4 nM | Kd (human CTLA4 [17]): 4.6 nM | Kd [18]: 12 nM | Kd [19]: 12 nM | Kd (human CTLA4 [20]): 3200 nM | Kd (human CTLA4 [21]): 2400 nM

B5: 04H1389-G1m/04L1086-lam1 (antibody, human IgG1, lambda, V domains shown)
VH: EVQLVESGGGLVKPGGSLRLSCAASGFTFSSKTMNWVRQAPGKGLEWVSSISTQSHYIYYAESVKGRFTISRDNAKNSLYLQMNSLRAEDTAVYYCARYGKREDMLWVFDYWGQGTLVTVSS
VL: QSALTQPPSASGSPGQTVTISCDGPSTGVGDYNYVHWYQQHPGKAPKLMIYFTSKKPSGVPDRFSGSKSGNTASLTVSGLQAEDEADYFCQTYAAPLGPMFGGGTKLTVLG
fold enhancement of binding ability against parent 04H1207-G1m/04L1086-lam1 [22]: ~10 fold

B8: 04H1382-G1m/04L1086-lam1 (antibody, human IgG1, lambda, V domains shown)
VH: EVQLVESGGGLVKPGGSLRLSCAASGFTFSSKTMNWVRQAPGKGLEWVSSISTQSHYIYYARSVKGRFTISRDNAKNSLYLQMNSLRAEDTAVYYCARYGKREDMLWVFDYWGQGTLVTVSS
VL: QSALTQPPSASGSPGQTVTISCDGPSTGVGDYNYVHWYQQHPGKAPKLMIYFTSKKPSGVPDRFSGSKSGNTASLTVSGLQAEDEADYFCQTYAAPLGPMFGGGTKLTVLG
Kd (human CTLA4 [26]): 46 nM | Kd (human CTLA4 [27]): 14 nM | Binding to Human CTLA4 (binding amount per unit amount of antibody) (human CTLA4 [28]): 0.008 | Binding to Human CTLA4 (binding amount per unit amount of antibody) (human CTLA4 [29]): 0.09 | Binding to Human CTLA4 (binding amount per unit amount of antibody) (human CTLA4 [30]): 0.152 | Binding to Human CTLA4 (binding amount per unit amount of antibody) (human CTLA4 [31]): 0.159

B9: 04H1382-G1m/04L1086-lam1 (antibody, human IgG1, lambda, V domains shown)
VH: EVQLVESGGGLVKPGGSLRLSCAASGFTFSSKTMNWVRQAPGKGLEWVSSISTQSHYIYYARSVKGRFTISRDNAKNSLYLQMNSLRAEDTAVYYCARYGKREDMLWVFDYWGQGTLVTVSS
VL: QSALTQPPSASGSPGQTVTISCDGPSTGVGDYNYVHWYQQHPGKAPKLMIYFTSKKPSGVPDRFSGSKSGNTASLTVSGLQAEDEADYFCQTYAAPLGPMFGGGTKLTVLG
fold enhancement of binding ability against parent 04H1208-G1m/04L1086-lam1 [22]: ~10 fold

B10: 04H1389-G1m/04L1086-lam1 (antibody, human IgG1, lambda, V domains shown)
VH: EVQLVESGGGLVKPGGSLRLSCAASGFTFSSKTMNWVRQAPGKGLEWVSSISTQSHYIYYAESVKGRFTISRDNAKNSLYLQMNSLRAEDTAVYYCARYGKREDMLWVFDYWGQGTLVTVSS
VL: QSALTQPPSASGSPGQTVTISCDGPSTGVGDYNYVHWYQQHPGKAPKLMIYFTSKKPSGVPDRFSGSKSGNTASLTVSGLQAEDEADYFCQTYAAPLGPMFGGGTKLTVLG
Kd (human CTLA4 [4]): 180 nM | Kd (human CTLA4 [8]): 43 nM | Kd (human CTLA4 [9]): 37 nM | Kd (human CTLA4 [10]): 44 nM | koff (human CTLA4 [10]): 0.0061 s⁻¹ | kon (human CTLA4 [10]): 140000 M⁻¹ s⁻¹ | Kd (human CTLA4 [11]): 130 nM | koff (human CTLA4 [11]): 0.018 s⁻¹ | kon (human CTLA4 [11]): 140000 M⁻¹ s⁻¹ | Kd (human CTLA4 [12]): 32 nM | koff (human CTLA4 [12]): 0.0032 s⁻¹ | kon (human CTLA4 [12]): 100000 M⁻¹ s⁻¹ | Kd (human CTLA4 [16]): 21 nM | Kd (human CTLA4 [20]): 5100 nM | Kd (human CTLA4 [21]): 5700 nM

Next, values leading:

binding result [1]: binds
B1: ABAM001 (antibody, human IgG1, V domains shown)
VH: EVQLVESGGDLVKPGGGLRLSCAASGFTFSSYTMHWVRQAPGKGLEWVSSISSRSRYKYYADSVKGRFTISRDNAKNSLYLQMNSLRAEDTAVYYCARFGIKNKRNWVLDYWGQGTLVTVSS
VL: QSALTQPPSASGSPGQTVTISCTGTSTDVGAYNYVSWYQQHPGKAPKLMIYQVSKRPSGVPDRFSGSKSGNTASLTVSGLQAEDEADYFCSLYTTRPQLAFGGGTKLTVL
notes: also called ABADh11-4_020

Kd [23]: 360 nM | Kd [24]: 56 nM | Kd [25]: 6500 nM
B6: 04H1077-G1m/04L1305-k0MT (antibody, human IgG1, kappa, V domains shown)
VH: EVQLVESGGDLVKPGGGLRLSCAASGFTFSSRTMNWVRQAPGKGLEWVSSISTRSGYIYYAESVKGRFTISRDNAKNSLYLQMNSLRAEDTAVYYCARYGKREDMLWVFDYWGQGTLVTVSS
VL: DIVMTQSPLSLPVTPGEPASISCDGPSTGVGDYNYVHWYQQKPGQAPRLLIYFTSKKPSGVPDRFSGSGSGTDFTLKISRVEAEDVGVYYCQTYAAPLGPMFGQGTKLEIKR

Kd [23]: 280 nM | Kd [24]: 48 nM | Kd [25]: 6900 nM
B7: 04H1077-G1m/04L1066-lam1 (antibody, human IgG1, lambda, V domains shown)
VH: EVQLVESGGDLVKPGGGLRLSCAASGFTFSSRTMNWVRQAPGKGLEWVSSISTRSGYIYYAESVKGRFTISRDNAKNSLYLQMNSLRAEDTAVYYCARYGKREDMLWVFDYWGQGTLVTVSS
VL: QSALTQPPSASGSPGQTVTISCDGPSTDVGDYNWVHWYQQHPGKAPKLMIYFTSKKPSGVPDRFSGSKSGNTASLTVSGLQAEDEADYFCSTYAAPLGPMFGGGTKLTVLG
